Data from publication PMC314469, “Protein Interaction Networks by Proteome Peptide Scanning” (PLoS Biology, 2004).

T1: Rvs167 SH3 (RV167_YEAST), P39743
T1 chain: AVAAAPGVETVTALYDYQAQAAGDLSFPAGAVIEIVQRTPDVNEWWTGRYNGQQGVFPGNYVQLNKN

T2: Yfr024 SH3 (LSB3_YEAST), P43603
T2 chain: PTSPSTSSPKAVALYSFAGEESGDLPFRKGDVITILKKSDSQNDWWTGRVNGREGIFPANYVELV

T3: Yhr016c SH3 (YSC84_YEAST), P32793
T3 chain: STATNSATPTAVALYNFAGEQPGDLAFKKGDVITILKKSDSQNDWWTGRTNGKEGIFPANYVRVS

T4: Boi1 SH3 (BOI1_YEAST), P38041
T4 chain: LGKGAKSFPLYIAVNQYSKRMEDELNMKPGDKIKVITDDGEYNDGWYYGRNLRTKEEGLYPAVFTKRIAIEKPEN

T5: Boi2 SH3 (BOI2_YEAST), P39969
T5 chain: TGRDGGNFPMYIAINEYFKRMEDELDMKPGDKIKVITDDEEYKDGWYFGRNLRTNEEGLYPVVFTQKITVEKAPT

T6: Myo5 SH3 (MYO5_YEAST), Q04439
T6 chain: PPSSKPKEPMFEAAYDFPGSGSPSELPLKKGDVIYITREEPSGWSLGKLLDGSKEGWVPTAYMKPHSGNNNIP


Experiments:
Assay in all cases: SPOT array
[1] = molecular target: T1, Rvs167 SH3 (RV167_YEAST), P39743
[2] = molecular target: Sho1 SH3 (SHO1_YEAST), P40073
[3] = molecular target: T2, Yfr024 SH3 (LSB3_YEAST), P43603
[4] = molecular target: T3, Yhr016c SH3 (YSC84_YEAST), P32793
[5] = molecular target: T4, Boi1 SH3 (BOI1_YEAST), P38041
[6] = molecular target: T5, Boi2 SH3 (BOI2_YEAST), P39969
[7] = molecular target: T6, Myo5 SH3 (MYO5_YEAST), Q04439

Chain of Sho1 SH3 (SHO1_YEAST), P40073 (P40073 295-366): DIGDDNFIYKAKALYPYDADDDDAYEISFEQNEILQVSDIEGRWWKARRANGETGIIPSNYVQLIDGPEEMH

| normalised SPOT signal, Boehringer light units (BLU); mean over the file's lines of this peptide [1] | normalised SPOT signal, Boehringer light units (BLU); mean over the file's lines of this peptide [2] | normalised SPOT signal, Boehringer light units (BLU); mean over the file's lines of this peptide [3] | normalised SPOT signal, Boehringer light units (BLU); mean over the file's lines of this peptide [4] | normalised SPOT signal, Boehringer light units (BLU); mean over the file's lines of this peptide [5] | normalised SPOT signal, Boehringer light units (BLU); mean over the file's lines of this peptide [6] | normalised SPOT signal, Boehringer light units (BLU); mean over the file's lines of this peptide [7] | Binder |
| --- | --- | --- | --- | --- | --- | --- | --- |
| 261 | 44.3 | 415 | 36.7 | 3760 | 34.1 | 5860 | TGYPRYFPQPPVQR [YLL058W 44-57] |
| 523 | 59.1 | 4970 | 788 | 163 | 33.4 | 243 | TEVWRKVPMKPIFE [YCR032W 1849-1862] |
| 430 | 301 | 607 | 148 | 463 | 103 | 556 | TGKFRYMPFSPAGT [YPR135W 471-484] |
| 101 | 23.8 | 162 | 5.8 | 8.4 | -0 | 214 | TGESRKAPLIPLLK [YGR099W 447-460] |
| 84 | 109 | 423 | 28.9 | 273 | 45.9 | 593 | TARNKKSPGGPRQR [YLR244C 372-385] |
| 3630 | 121 | 6310 | 1160 | 1420 | 27.8 | 1190 | TGKPRKTPRPPFPF [YLR422W 149-162] |
| 57.4 | 53.6 | 22.7 | 10.8 | 57.9 | 0 | 77.3 | TELLKTLPFYPTPS [YGR110W 91-104] |
| 22.9 | 97.2 | 132 | 19.4 | 79.9 | 15.7 | 228 | TELLRIIPEMPKDL [YLR032W 80-93] |
| 198 | 39.5 | 202 | 32.2 | 51.5 | -0 | 249 | TILERLTPLVPNNL [YKL017C 267-280] |
| 24.6 | 30.2 | 11.7 | 6.5 | 27.1 | -0 | 48 | TDTTKVTPIVPVPI [YHR188C 382-395] |
| 59.3 | 48.6 | 9.5 | 13.5 | 0 | 15.6 | 146 | TDLGKDIPFFPSSE [YDR443C 541-554] |
| 313 | 72.9 | 132 | 50.4 | 79.3 | 21.9 | 118 | TGGGRIVPGVPPGA [YGR054W 516-529] |
| 98 | 29 | 0 | 64.7 | 132 | 15.6 | 29.1 | TEIYKLEPREPQVD [YEL031W 1078-1091] |
| 34400 | 86.7 | 13800 | 9520 | 40.4 | 0 | 163 | TEFSRPIPPTPSGF [YPL009C 63-76] |
| 35.8 | 0.1 | 2.6 | 5.1 | 106 | 20.8 | 290 | TASGKTSPILPLQN [YBR066C 94-107] |
| 18.8 | 14700 | 129 | 31.5 | 32.5 | 23.1 | 23.4 | TDLFKPLPEPPTEL [YNL331C 2-15] |
